Experimental data published in PMC3028594 (DNA repair, 2010).

B1: regulatory subdomain of Escherichia coli MutL (domain or fragment, UniProt P23367 466-569, looked up)
chain: WLRQAQLTPGEAPVCAQPLLIPLRLKVSAEEKSALEKAQSALAELGIDFQSDAQHVTIRAVPLPLRQQNLQILIPELIGYLAKQSVFEPGNIAQWIARNLMSEH
B2: C-terminal (endonuclease) domain of Bacillus subtilis MutL (domain or fragment, UniProt P49850 433-627, looked up)
chain: SDRVPIMYPIGQMHGTYILAQNENGLYIIDQHAAQERIKYEYFREKVGEVEPEVQEMIVPLTFHYSTNEALIIEQHKQELESVGVFLESFGSNSYIVRCHPAWFPKGEEAELIEEIIQQVLDSKNIDIKKLREEAAIMMSCKGSIKANRHLRNDEIKALLDDLRSTSDPFTCPHGRPIIIHHSTYEMEKMFKRVM
B3: Bacillus subtilis β sliding clamp (β subunit of DNA polymerase III) (natural protein, UniProt P05649 1-378, looked up)
chain: MKFTIQKDRLVESVQDVLKAVSSRTTIPILTGIKIVASDDGVSFTGSDSDISIESFIPKEEGDKEIVTIEQPGSIVLQARFFSEIVKKLPMATVEIEVQNQYLTIIRSGKAEFNLNGLDADEYPHLPQIEEHHAIQIPTDLLKNLIRQTVFAVSTSETRPILTGVNWKVEQSELLCTATDSHRLALRKAKLDIPEDRSYNVVIPGKSLTELSKILDDNQELVDIVITETQVLFKAKNVLFFSRLLDGNYPDTTSLIPQDSKTEIIVNTKEFLQAIDRASLLAREGRNNVVKLSAKPAESIEISSNSPEIGKVVEAIVADQIEGEELNISFSPKYMLDALKVLEGAEIRVSFTGAMRPFLIRTPNDETIVQLILPVRTY
B4: regulatory subdomain of Bacillus subtilis MutL (domain or fragment, UniProt P49850 471-574, looked up)
chain: KYEYFREKVGEVEPEVQEMIVPLTFHYSTNEALIIEQHKQELESVGVFLESFGSNSYIVRCHPAWFPKGEEAELIEEIIQQVLDSKNIDIKKLREEAAIMMSCK
B5: C-terminal domain of Escherichia coli MutL (domain or fragment, UniProt P23367 432-615, looked up)
chain: SQSFGRVLTIVHSDCALLERDGNISLLSLPVAERWLRQAQLTPGEAPVCAQPLLIPLRLKVSAEEKSALEKAQSALAELGIDFQSDAQHVTIRAVPLPLRQQNLQILIPELIGYLAKQSVFEPGNIAQWIARNLMSEHAQWSMAQAITLLADVERLCPQLVKTPPGGLLQSVDLHPAIKALKDE

What was measured:
Assay in all cases: cross-linking
[1] = target: Escherichia coli β sliding clamp (β subunit of DNA polymerase III) (Escherichia coli, UniProt P0A988 1-366)
Sequence of Escherichia coli β sliding clamp (β subunit of DNA polymerase III) (P0A988 whole entry): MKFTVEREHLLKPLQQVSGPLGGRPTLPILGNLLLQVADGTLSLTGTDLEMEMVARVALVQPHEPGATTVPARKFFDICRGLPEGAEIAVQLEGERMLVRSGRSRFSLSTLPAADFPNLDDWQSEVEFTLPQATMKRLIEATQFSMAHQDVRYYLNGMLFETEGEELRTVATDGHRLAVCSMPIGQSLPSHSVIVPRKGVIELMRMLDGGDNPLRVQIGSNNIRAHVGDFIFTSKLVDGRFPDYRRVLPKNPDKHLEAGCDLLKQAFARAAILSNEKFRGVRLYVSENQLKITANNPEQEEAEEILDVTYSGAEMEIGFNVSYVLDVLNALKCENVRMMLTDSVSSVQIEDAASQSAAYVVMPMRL

[2] = target: the molecule itself
[3] = target: B3

Row | Binder | binding result [1] | stoichiometry N [2] | binding result [3]
1 | B1 | binds |  | 
2 | B2 | binds | 2 | 
3 | B3 |  | 2 | 
4 | B4 |  |  | binds
5 | B5 |  | ≥ 2 | binds
